Assay results as given in the supplement of paper PMC5998384.

Tests used:
HeLa Kyoto [1] = experiment: solubility in G1/S (NP-40 vs SDS abundance) (log2 ratio); higher = more soluble; details: cell cycle stage: G1/S
HeLa Kyoto [2] = experiment: melting temperature (median over replicates), in situ; higher = more thermally stable
HeLa Kyoto [3] = experiment: solubility change mitosis vs G1/S (difference of NP-40 vs SDS log2 ratios) (log2 ratio difference); higher = more soluble in mitosis
HeLa Kyoto [4] = experiment: thermal stability score vs G1/S (z-score of summed log2 fold changes over temperatures); higher = more thermally stable than in G1/S
[5] = cell cycle stage: early G1 (4.5 h after nocodazole release)
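Throughout, for melting temperature (median over replicates), in situ: HeLa Kyoto cells synchronized by double thymidine or nocodazole block, proteins quantified by TMT10plex mass spectrometry, three independent biological replicates.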
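Throughout, for solubility change mitosis vs G1/S (difference of NP-40 vs SDS log2 ratios): synchronized HeLa Kyoto cells (double thymidine block for G1/S, nocodazole release for mitosis), protein amounts in NP-40 versus SDS lysates quantified by mass spectrometry, three biological replicates.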
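Throughout, for solubility in G1/S (NP-40 vs SDS abundance): HeLa Kyoto cells arrested at G1/S by double thymidine block, proteins quantified by TMT10plex mass spectrometry in mild NP-40 versus SDS extracts, three biological replicates.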
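Throughout, for thermal stability score vs G1/S (z-score of summed log2 fold changes over temperatures): synchronized HeLa Kyoto cells, proteins quantified by TMT10plex mass spectrometry, three biological replicates, mitosis taken 0.5 h after nocodazole release, G1/S directly after double thymidine block.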

With “MSRCAQAAEVAATVPGAGVGNVGLRPPMVPRQASFFPPPVPNPFVQQTQIGSARRVQIVLLGIILLPIRVLLVALILLLAWPFAAISTVCCPEKLTHPITGWRRKITQTALKFLGRAMFFSMGFIVAVKGKIASPLEAPVFVAAPHSTFFDGIACVVAGLPSMVSRNENAQVPLIGRLLRAVQPVLVSRVDPDSRKNTINEIIKRTTSGGEWPQILVFPEGTCTNRSCLITFKPGAFIPGVPVQPVLLRYPNKLDTVTWTWQGYTFIQLCMLTFCQLFTKVEVEFMPVQVPNDEEKNDPVLFANKVRNLMAEALGIPVTDHTYEDCRLMISAGQLTLPMEAGLVEFTKISRKLKLDWDGVRKHLDEYASIASSSKGGRIGIEEFAKYLKLPVSDVLRQLFALFDRNHDGSIDFREYVIGLAVLCNPSNTEEIIQVAFKLFDVDEDGYITEEEFSTILQASLGVPDLDVSGLFKEIAQGDSISYEEFKSFALKHPEYAKIFTTYLDLQTCHVFSLPKEVQTTPSTASNKVSPEKHEESTSDKKDD [LPCAT2]” the “solubility in G1/S (log2)” value (HeLa Kyoto [1]) was -0.00721, the melting temperature (HeLa Kyoto [2]; cell cycle stage: G1/S) was 51.3 °C and the melting temperature (HeLa Kyoto [2]; cell cycle stage: mitosis) was 52.5 °C. For the same sequence, the “solubility change mitosis (log2)” value (HeLa Kyoto [3]) was -0.289, the thermal stability score (HeLa Kyoto [4]; [5]) was 1.39 and the thermal stability score (HeLa Kyoto [4]; cell cycle stage: mitosis) was 1.37.

For “MSRFVQDLSKAMSQDGASQFQEVIRQELELSVKKELEKILTTASSHEFEHTKKDLDGFRKLFHRFLQEKGPSVDWGKIQRPPEDSIQPYEKIKARGLPDNISSVLNKLVVVKLNGGLGTSMGCKGPKSLIGVRNENTFLDLTVQQIEHLNKTYNTDVPLVLMNSFNTDEDTKKILQKYNHCRVKIYTFNQSRYPRINKESLLPVAKDVSYSGENTEAWYPPGHGDIYASFYNSGLLDTFIGEGKEYIFVSNIDNLGATVDLYILNHLMNPPNGKRCEFVMEVTNKTRADVKGGTLTQYEGKLRLVEIAQVPKAHVDEFKSVSKFKIFNTNNLWISLAAVKRLQEQNAIDMEIIVNAKTLDGGLNVIQLETAVGAAIKSFENSLGINVPRSRFLPVKTTSDLLLVMSNLYSLNAGSLTMSEKREFPTVPLVKLGSSFTKVQDYLRRFESIPDMLELDHLTVSGDVTFGKNVSLKGTVIIIANHGDRIDIPPGAVLENKIVSGNLRILDH [UGP2]”, the “solubility in G1/S (log2)” value (HeLa Kyoto [1]) was 0.158, the melting temperature (HeLa Kyoto [2]; cell cycle stage: G1/S) was 55.9 °C and the melting temperature (HeLa Kyoto [2]; cell cycle stage: mitosis) was 56 °C. For the same sequence, the “solubility change mitosis (log2)” value (HeLa Kyoto [3]) was -0.072, the thermal stability score (HeLa Kyoto [4]; [5]) was 0.682 and the thermal stability score (HeLa Kyoto [4]; cell cycle stage: mitosis) was 0.921.

For “MSRLGALGGARAGLGLLLGTAAGLGFLCLLYSQRWKRTQRHGRSQSLPNSLDYTQTSDPGRHVMLLRAVPGGAGDASVLPSLPREGQEKVLDRLDFVLTSLVALRREVEELRSSLRGLAGEIVGEVRCHMEENQRVARRRRFPFVRERSDSTGSSSVYFTASSGATFTDAESEGGYTTANAESDNERDSDKESEDGEDEVSCETVKMGRKDSLDLEEEAASGASSALEAGGSSGLEDVLPLLQQADELHRGDEQGKREGFQLLLNNKLVYGSRQDFLWRLARAYSDMCELTEEVSEKKSYALDGKEEAEAALEKGDESADCHLWYAVLCGQLAEHESIQRRIQSGFSFKEHVDKAIALQPENPMAHFLLGRWCYQVSHLSWLEKKTATALLESPLSATVEDALQSFLKAEELQPGFSKAGRVYISKCYRELGKNSEARWWMKLALELPDVTKEDLAIQKDLEELEVILRD [RMDN3]”, the “solubility in G1/S (log2)” value (HeLa Kyoto [1]) was -0.0304, the melting temperature (HeLa Kyoto [2]; cell cycle stage: G1/S) was 51.1 °C and the melting temperature (HeLa Kyoto [2]; cell cycle stage: mitosis) was 50.8 °C. The “solubility change mitosis (log2)” value (HeLa Kyoto [3]) was -0.102, the thermal stability score (HeLa Kyoto [4]; [5]) was 0.252 and the thermal stability score (HeLa Kyoto [4]; cell cycle stage: mitosis) was -0.0237.

In the case of “MSRLKRIAGQDLRAGFKAGGRDCGTSVPQGLLKAARKSGQLNLSGRNLSEVPQCVWRINVDIPEEANQNLSFGATERWWEQTDLTKLIISNNKLQSLTDDLRLLPALTVLDIHDNQLTSLPSAIRELENLQKLNVSHNKLKILPEEITNLRNLKCLYLQHNELTCISEGFEQLSNLEDLDLSNNHLTTVPASFSSLSSLVRLNLSSNELKSLPAEINRMKRLKHLDCNSNLLETIPPELAGMESLELLYLRRNKLRFLPEFPSCSLLKELHVGENQIEMLEAEHLKHLNSILVLDLRDNKLKSVPDEIILLRSLERLDLSNNDISSLPYSLGNLHLKFLALEGNPLRTIRREIISKGTQEVLKYLRSKIKDDGPSQSESATETAMTLPSESRVNIHAIITLKILDYSDKQATLIPDEVFDAVKSNIVTSINFSKNQLCEIPKRMVELKEMVSDVDLSFNKLSFISLELCVLQKLTFLDLRNNFLNSLPEEMESLVRLQTINLSFNRFKMLPEVLYRIFTLETILISNNQVGSVDPQKMKMMENLTTLDLQNNDLLQIPPELGNCVNLRTLLLDGNPFRVPRAAILMKGTAAILEYLRDRIPT [LRRC40]”, the “solubility in G1/S (log2)” value (HeLa Kyoto [1]) is reported as 0.322, the melting temperature (HeLa Kyoto [2]; cell cycle stage: G1/S) is reported as 49.2 °C and the melting temperature (HeLa Kyoto [2]; cell cycle stage: mitosis) is reported as 49.2 °C. For the same sequence, the “solubility change mitosis (log2)” value (HeLa Kyoto [3]) was -0.167, the thermal stability score (HeLa Kyoto [4]; [5]) was 0.285 and the thermal stability score (HeLa Kyoto [4]; cell cycle stage: mitosis) was 1.77.
